Results taken from paper PMC8755798 (Nature Communications, 2022).

Target: the molecule itself
Assay: cryo-EM structure

B1: mycobacterial proteasome ATPase (Mpa), Mycobacterium tuberculosis, wild type (enzyme)
chain: MGESERSEAFGIPRDSPLSSGDAAELEQLRREAAVLREQLENAVGSHAPTRSARDIHQLEARIDSLAARNSKLMETLKEARQQLLALREEVDRLGQPPSGYGVLLATHDDDTVDVFTSGRKMRLTCSPNIDAASLKKGQTVRLNEALTVVEAGTFEAVGEISTLREILADGHRALVVGHADEERVVWLADPLIAEDLPDGLPEALNDDTRPRKLRPGDSLLVDTKAGYAFERIPKAEVEDLVLEEVPDVSYADIGGLSRQIEQIRDAVELPFLHKELYREYSLRPPKGVLLYGPPGCGKTLIAKAVANSLAKKMAEVRGDDAHEAKSYFLNIKGPELLNKFVGETERHIRLIFQRAREKASEGTPVIVFFDEMDSIFRTRGTGVSSDVETTVVPQLLSEIDGVEGLENVIVIGASNREDMIDPAILRPGRLDVKIKIERPDAEAAQDIYSKYLTEFLPVHADDLAEFDGDRSACIKAMIEKVVDRMYAEIDDNRFLEVTYANGDKEVMYFKDFNSGAMIQNVVDRAKKNAIKSVLETGQPGLRIQHLLDSIVDEFAENEDLPNTTNPDDWARISGKKGERIVYIRTLVTGKSSSASRAIDTESNLGQYL
stoichiometry N: 6
